Test results as given in article doi:10.1101/2025.09.02.673809.

Biological target: HLA-DQ8 molecule (DQA1*03:01-DQB1*03:02) (human)
Assay: ProImmune REVEAL MHC-peptide binding assay

B1: insulin-derived 15-mer … (peptide)
peptide: EALYLVCGNAVEVLK
A fold affinity against the reference peptide (T1D auto-antigen …) of 41 fold was found for B1 in this work.
